Consider 1 protein from PMC4198189, “Human Valacyclovir Hydrolase/Biphenyl Hydrolase-Like Protein Is a Highly Efficient Homocysteine Thiolactonase” (PLoS ONE, 2014).

Substrate in this data set: N[C@H]1CCSC1=O
In words: purified protein. The data set is classed as biochemical, Homo sapiens. The following applies: Dulbecco's PBS with 0.32 mM DTNB, 37 °C, partially purified native enzyme.

As a reminder, the Km is the concentration of substrate that gives half-maximal velocity.

B1: human liver BPHL (purified human liver HCTLase) (Homo sapiens) (protein)
chain: SVTSAKVAVNGVQLHYQQTGEGDHAVLLLPGMLGSGETDFGPQLKNLNKKLFTVVAWDPRGYGHSRPPDRDFPADFFERDAKDAVDLMKALKFKKVSLLGWSDGGITALIAAAKYPSYIHKMVIWGANAYVTDEDSMIYEGIRDVSKWSERTRKPLEALYGYDYFARTCEKWVDGIRQFKHLPDGNICRHLLPRVQCPALIVHGEKDPLVPRFHADFIHKHVKGSRLHLMPEGKHNLHLRFADEFNKLAEDFLQ
notes: native, partially purified from pooled human liver (five donors); about 30 kDa by gel filtration; identified by MS, with ACAA1 and hydroxyacyl-CoA dehydrogenase bands co-purifying
Regarding B1, the Km was determined as 3.92 mM.
